Laboratory results taken from patent US20240190962A1 (IMMUNOWAKE, published 2024).

Biological target: human IL-12 receptor complex (IL-12Rβ1, IL-12Rβ2) (human, UniProt P42701 24-662; Q99665 24-862)
Experiment: cell-based or functional assay

human IL-12 receptor complex (IL-12Rβ1, IL-12Rβ2), sequence (Q99665 24-862, chain 2 of 2, other chains not shown): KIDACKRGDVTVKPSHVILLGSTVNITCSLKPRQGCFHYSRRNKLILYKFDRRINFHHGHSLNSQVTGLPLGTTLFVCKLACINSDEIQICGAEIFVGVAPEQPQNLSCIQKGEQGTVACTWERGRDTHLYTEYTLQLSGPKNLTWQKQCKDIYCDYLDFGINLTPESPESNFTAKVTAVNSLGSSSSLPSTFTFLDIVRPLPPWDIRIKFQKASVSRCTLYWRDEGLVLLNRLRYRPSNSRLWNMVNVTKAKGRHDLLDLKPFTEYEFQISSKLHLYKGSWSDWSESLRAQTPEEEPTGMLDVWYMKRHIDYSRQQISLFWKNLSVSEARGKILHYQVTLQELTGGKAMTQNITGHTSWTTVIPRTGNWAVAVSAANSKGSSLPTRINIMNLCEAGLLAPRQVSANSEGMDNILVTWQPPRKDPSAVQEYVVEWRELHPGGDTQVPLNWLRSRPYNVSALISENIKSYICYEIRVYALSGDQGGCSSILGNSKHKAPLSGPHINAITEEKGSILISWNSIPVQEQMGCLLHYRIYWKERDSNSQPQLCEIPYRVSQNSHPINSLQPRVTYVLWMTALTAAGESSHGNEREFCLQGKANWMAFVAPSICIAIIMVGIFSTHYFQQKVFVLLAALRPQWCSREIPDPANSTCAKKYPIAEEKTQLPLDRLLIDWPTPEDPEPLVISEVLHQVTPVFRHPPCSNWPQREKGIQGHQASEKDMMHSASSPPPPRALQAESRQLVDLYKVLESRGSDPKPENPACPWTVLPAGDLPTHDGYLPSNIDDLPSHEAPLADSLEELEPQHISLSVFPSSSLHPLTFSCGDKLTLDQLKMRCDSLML

IL-12 biological activity, HEK-IL-12 | IL-12 biological activity, HEK-IL-12-PD-1 (high) | IL-12 biological activity, HEK-IL-12-PD-1 (low) | PBMC (IFN-γ ng/ml) | Binder
< 0.2% | 38% | 33% | 820 ng/mL | IL-12(E59A/F60A)/anti-PD-1(D100N) (other) light: not shown heavy 1: QVQLVESGGGVVQPGRSLRLDCKASGITFSNSGMHWVRQAPGKGLEWVAVIWYDGSKRYYADSVKGRFTISRDNSKNTLFLQMNSLRAEDTAVYYCATNNDYWGQGTLVTVSSASTKGPSVFPLAPSSKSTSGGTAALGCLVKDYFPEPVTVSWNSGALTSGVHTFPAVLQSSGLYSLSSVVTVPSSSLGTQTYICNVNHKPSNTKVDKKVEPKSCDKTHTCPPCPAPEKKGGPSVFLFPPKPKDTLMISRTPEVTCVVVDVSHEDPEVKFNWYVDGVEVHNAKTKPREEQYNSTYRVVSVLTVLHQDWLNGKEYKCKVSNKALPAPIEKTISKAKGQPREPQVYVLPPSREEMTKNQVSLLCLVKGFYPSDIAVEWESNGQPENRYMTWPPVLDSDGSFFLYSKLTVDKSRWQQGNVFSCSVMHEALHNHYTQKSLSLSPGK heavy 2: QVQLVESGGGVVQPGRSLRLDCKASGITFSNSGMHWVRQAPGKGLEWVAVIWYDGSKRYYADSVKGRFTISRDNSKNTLFLQMNSLRAEDTAVYYCATNNDYWGQGTLVTVSSASTKGPSVFPLAPSSKSTSGGTAALGCLVKDYFPEPVTVSWNSGALTSGVHTFPAVLQSSGLYSLSSVVTVPSSSLGTQTYICNVNHKPSNTKVDKKVEPKSCDKPGSGIWELKKDVYVVELDWYPDAPGEMVVLTCDTPEEDGITWTLDQSSEVLGSGKTLTIQVKAAGDAGQYTCHKGGEVLSHSLLLLHKKEDGIWSTDILKDQKEPKNKTFLRCEAKNYSGRFTCWWLTTISTDLTFSVKSSRGSSDPQGVTCGAATLSAERVRGDNKEYEYSVECQEDSACPAAEESLPIEVMVDAVHKLKYENYTSSFFIRDIIKPDPPKNLQLKPLKNSRQVEVSWEYPDTWSTPHSYFSLTFCVQVQGKSKREKKDRVFTDKTSATVICRKNASISVRAQDRYYSSSWSEWASVPCSGGGGSGGGGSGGGGSGGGGSGRNLPVATPDPGMFPCLHHSQNLLRAVSNMLQKARQTLEFYPCTSEEIDHEDITKDKTSTVEACLPLELTKNESCLNSRETSFITNGSCLASRKTSFMMALCLSSIYEDLKMYQVEFKTMNAKLLMDPKRQIFLDQNMLAVIDELMQALNFNSETVPQKSSLEEPDFYKTKIKLCILLHAFRIRAVTIDRVMSYLNASDKTHTCPPCPAPEDEGGPSVFLFPPKPKDTLMISRTPEVTCVVVDVSHEDPEVKFNWYVDGVEVHNAKTKPREEQYNSTYRVVSVLTVLHQDWLNGKEYKCKVSNKALPAPIEKTISKAKGQPREPQVYVYPPSREEMTKNQVSLTCLVKGFYPSDIAVEWESNGQPENNYKTTPPVLDEDGSFALVSKLTVDKSRWQQGNVFSCSVMHEALHNHYTQKSLSLSPGK
< 0.2% | 10% | 3% | 69 ng/mL | IL-12(E59A/F60A)/anti-PD-1(D100R) (other) light: not shown heavy 1: QVQLVESGGGVVQPGRSLRLDCKASGITFSNSGMHWVRQAPGKGLEWVAVIWYDGSKRYYADSVKGRFTISRDNSKNTLFLQMNSLRAEDTAVYYCATNRDYWGQGTLVTVSSASTKGPSVFPLAPSSKSTSGGTAALGCLVKDYFPEPVTVSWNSGALTSGVHTFPAVLQSSGLYSLSSVVTVPSSSLGTQTYICNVNHKPSNTKVDKKVEPKSCDKTHTCPPCPAPEKKGGPSVFLFPPKPKDTLMISRTPEVTCVVVDVSHEDPEVKFNWYVDGVEVHNAKTKPREEQYNSTYRVVSVLTVLHQDWLNGKEYKCKVSNKALPAPIEKTISKAKGQPREPQVYVLPPSREEMTKNQVSLLCLVKGFYPSDIAVEWESNGQPENRYMTWPPVLDSDGSFFLYSKLTVDKSRWQQGNVFSCSVMHEALHNHYTQKSLSLSPGK heavy 2: QVQLVESGGGVVQPGRSLRLDCKASGITFSNSGMHWVRQAPGKGLEWVAVIWYDGSKRYYADSVKGRFTISRDNSKNTLFLQMNSLRAEDTAVYYCATNRDYWGQGTLVTVSSASTKGPSVFPLAPSSKSTSGGTAALGCLVKDYFPEPVTVSWNSGALTSGVHTFPAVLQSSGLYSLSSVVTVPSSSLGTQTYICNVNHKPSNTKVDKKVEPKSCDKPGSGIWELKKDVYVVELDWYPDAPGEMVVLTCDTPEEDGITWTLDQSSEVLGSGKTLTIQVKAAGDAGQYTCHKGGEVLSHSLLLLHKKEDGIWSTDILKDQKEPKNKTFLRCEAKNYSGRFTCWWLTTISTDLTFSVKSSRGSSDPQGVTCGAATLSAERVRGDNKEYEYSVECQEDSACPAAEESLPIEVMVDAVHKLKYENYTSSFFIRDIIKPDPPKNLQLKPLKNSRQVEVSWEYPDTWSTPHSYFSLTFCVQVQGKSKREKKDRVFTDKTSATVICRKNASISVRAQDRYYSSSWSEWASVPCSGGGGSGGGGSGGGGSGGGGSGRNLPVATPDPGMFPCLHHSQNLLRAVSNMLQKARQTLEFYPCTSEEIDHEDITKDKTSTVEACLPLELTKNESCLNSRETSFITNGSCLASRKTSFMMALCLSSIYEDLKMYQVEFKTMNAKLLMDPKRQIFLDQNMLAVIDELMQALNFNSETVPQKSSLEEPDFYKTKIKLCILLHAFRIRAVTIDRVMSYLNASDKTHTCPPCPAPEDEGGPSVFLFPPKPKDTLMISRTPEVTCVVVDVSHEDPEVKFNWYVDGVEVHNAKTKPREEQYNSTYRVVSVLTVLHQDWLNGKEYKCKVSNKALPAPIEKTISKAKGQPREPQVYVYPPSREEMTKNQVSLTCLVKGFYPSDIAVEWESNGQPENNYKTTPPVLDEDGSFALVSKLTVDKSRWQQGNVFSCSVMHEALHNHYTQKSLSLSPGK
< 0.2% | 33% | 17% | 120 ng/mL | IL-12(E59A/F60A)/anti-PD-1(D100G) (other) light: not shown heavy 1: QVQLVESGGGVVQPGRSLRLDCKASGITFSNSGMHWVRQAPGKGLEWVAVIWYDGSKRYYADSVKGRFTISRDNSKNTLFLQMNSLRAEDTAVYYCATNGDYWGQGTLVTVSSASTKGPSVFPLAPSSKSTSGGTAALGCLVKDYFPEPVTVSWNSGALTSGVHTFPAVLQSSGLYSLSSVVTVPSSSLGTQTYICNVNHKPSNTKVDKKVEPKSCDKTHTCPPCPAPEKKGGPSVFLFPPKPKDTLMISRTPEVTCVVVDVSHEDPEVKFNWYVDGVEVHNAKTKPREEQYNSTYRVVSVLTVLHQDWLNGKEYKCKVSNKALPAPIEKTISKAKGQPREPQVYVLPPSREEMTKNQVSLLCLVKGFYPSDIAVEWESNGQPENRYMTWPPVLDSDGSFFLYSKLTVDKSRWQQGNVFSCSVMHEALHNHYTQKSLSLSPGK heavy 2: QVQLVESGGGVVQPGRSLRLDCKASGITFSNSGMHWVRQAPGKGLEWVAVIWYDGSKRYYADSVKGRFTISRDNSKNTLFLQMNSLRAEDTAVYYCATNGDYWGQGTLVTVSSASTKGPSVFPLAPSSKSTSGGTAALGCLVKDYFPEPVTVSWNSGALTSGVHTFPAVLQSSGLYSLSSVVTVPSSSLGTQTYICNVNHKPSNTKVDKKVEPKSCDKPGSGIWELKKDVYVVELDWYPDAPGEMVVLTCDTPEEDGITWTLDQSSEVLGSGKTLTIQVKAAGDAGQYTCHKGGEVLSHSLLLLHKKEDGIWSTDILKDQKEPKNKTFLRCEAKNYSGRFTCWWLTTISTDLTFSVKSSRGSSDPQGVTCGAATLSAERVRGDNKEYEYSVECQEDSACPAAEESLPIEVMVDAVHKLKYENYTSSFFIRDIIKPDPPKNLQLKPLKNSRQVEVSWEYPDTWSTPHSYFSLTFCVQVQGKSKREKKDRVFTDKTSATVICRKNASISVRAQDRYYSSSWSEWASVPCSGGGGSGGGGSGGGGSGGGGSGRNLPVATPDPGMFPCLHHSQNLLRAVSNMLQKARQTLEFYPCTSEEIDHEDITKDKTSTVEACLPLELTKNESCLNSRETSFITNGSCLASRKTSFMMALCLSSIYEDLKMYQVEFKTMNAKLLMDPKRQIFLDQNMLAVIDELMQALNFNSETVPQKSSLEEPDFYKTKIKLCILLHAFRIRAVTIDRVMSYLNASDKTHTCPPCPAPEDEGGPSVFLFPPKPKDTLMISRTPEVTCVVVDVSHEDPEVKFNWYVDGVEVHNAKTKPREEQYNSTYRVVSVLTVLHQDWLNGKEYKCKVSNKALPAPIEKTISKAKGQPREPQVYVYPPSREEMTKNQVSLTCLVKGFYPSDIAVEWESNGQPENNYKTTPPVLDEDGSFALVSKLTVDKSRWQQGNVFSCSVMHEALHNHYTQKSLSLSPGK
